Among the data in patent US20220233554 are activity and binding signal values, retold here.

In the data set the target is OCT4 wild-type in cells (human) (UniProt Q01860). Description: cell_activity. As to conditions: for binding signal: transcription activity relative to OBS1+OBS2.
Sequence of UniProt Q01860 (Q01860 whole entry): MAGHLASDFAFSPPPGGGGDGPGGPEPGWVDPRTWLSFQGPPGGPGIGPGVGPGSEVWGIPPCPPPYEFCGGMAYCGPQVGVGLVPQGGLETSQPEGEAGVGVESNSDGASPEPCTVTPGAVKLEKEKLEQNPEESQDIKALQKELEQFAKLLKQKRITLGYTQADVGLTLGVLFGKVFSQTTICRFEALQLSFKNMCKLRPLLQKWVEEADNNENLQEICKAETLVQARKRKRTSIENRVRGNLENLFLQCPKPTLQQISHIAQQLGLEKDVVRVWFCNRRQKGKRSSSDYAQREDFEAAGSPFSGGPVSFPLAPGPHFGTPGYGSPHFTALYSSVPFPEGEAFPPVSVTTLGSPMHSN

For the setting “luciferase reporter in HEK293FT vs vector control”, MYC -1/-1899 promoter reporter showed an activity of 24.4 fold.

MYC OBS1 single-site reporter: the binding signal stood at 60%.

With MYC OBS2 single-site reporter, the binding signal was found to be 40%.
